This data set is described as follows: label from the status in PepcDB records.
“MEGAEEAGAEIAVDSKDLQQQSKAFDKLTDRVEDRQLDSSRVQSAMASIAASREADLNAKRLREKELASVKINPADVEFIVNELEIEKNVAERTLREHKGDAVAATRQLLSRYPL”: the protein production entry is “failed”. Under “MEGIVSIVFSTYNNREKALKCIESCLKQKYNKLFVIVADDGSNDGSQELFKKIQEKDSRFKFIPLVHKERGIARGKAISLAKKLESEYIYIIDSDMILEDNLIEKCMSFFNKNKNVGALIVPEYAFSEYENFYSKVKVFERNIINNSGEDMGKNSIEAARFWRMDAYDLSGGINPSQISFEETQPTIRYVEKGGVVKRAVFTKVYHDEKFVTLRNLLKKKMYYFSVMDKTIQSEEGGFIKTLKRWYFFRPVLYRGSNLKRYLRHPILTIGMINMYVILTLVGVSQILKRKK” stands “failed”; under “MEGNCSQGRFDSQVSSMRDLRPNAINQNQKQHHPNSRQDSGFNNTMDTRHNNVDRGKKSMSEDDELCLLSSDGQNKSKENSPWQRVKWMDKMVKLMITALSYIGEDSGSDKKFAVLQKKGKWRSVSKVMDERGYHVSPQQCEDKFNDLNKRYKKLNEMLGRGTSCEVVENPSLLDKIDYLNEKEKDEVRRIMSSKHLFYEEMCSYHNGNRLHLPHDPAVQRSLHLITLGSRDDHDNDEHGKHQNEDLDDDDDYEEDHDGALSDRPLKRLRQSQSHEDVGHPNKGYDVPCLPRSQADVNRGISLDSRKAAGLQRQQIESKSLELEGRKLQIQAEMMELERQQFKWEVFSKRREQKLAKMRMENERMKLENERMSLELKRIELGAKL”, “failed”.

Turning to “MEGSIASRARLPRATQMAVATLDTNPRMRRPPREPAPPPSPLHQLVVTLATGKWLLLAVALLGGILAGLAGFTRPVLFEAATQIIIDAPSTGTANATATAQDSLDSSIDDHLTMLSSQAHLRRVLTALRQPQAADAAGKSGISAVPPTSGSFVGNLLSRVWSKGGPAAESPEAVDAAALKTLRSGMRVGQELRSRVITIGFTDTSPVRAALVANTFAQVYIEDLVQKRRASDQRELESLVASLPQVQRDLVDATDRLETYRLTHGAVDQSAANNAANETAELGRQIFLSKANLSASESRLRHIEDLRKAGAPVSAIAEEIGSPVLTDLVARQSGAAADGDLGTAINREIEQGIARIAAEANVYRAQVAALEDRKRVRDAAVADTASQLSGLRALEPQVTIVTQHYNELLGRQQDLIRRIAAPSPGVAVLSTAWPPSNPITLPRIFLVPPGMIVFGLMAAVFVLVRNMFNQTLRSEAEAEAELGIPCVGLLPKVSGLHARQLRHLVLVQQNSPFSRAATSLLVTAAPTQGKGQPPHMILVTSSILDDGKTELAWSLALAATRLGGRVLFLDLDRKDARLTNEFRGEFGTIKAHNSFGDYVSERCVLQDAITRMPEIGIDLMAAPGPSEDLLTLLSTVDKSQFTEELLSVYDVVIINGPLGLGGPETRLLKRWADAVLFAVRWAKTRRSIARGVLESLRAGGSVTVPIGSVLTQVNLKRYAGSRLDDNADLLLERV”, the protein production entry is reported as “failed”. As for “MEGSIDHHVRKAIQIGVNPLQAIQMASLNAAECFKLAKKGAIAPGFTADLLFIEDLQSLAITHVFKNGTCVAKNGKLIVPLEHHHHHH”, the protein production result is given as “failed”.

For the sequence “MEGSLSRGVEIMKLRELVARSRSIRRFDEHVAVNDATLRDLVELVCYTPSAANRQLLRFLPVTGADMSDKVFPCLKWAGYLEDWPGPEPGERPAAALVMLCRNEDLPGAACDSGIAAQTIMLGAAEKELGGCIVAAIDRERLMASLGIPDAWTVLLVIALGKPAETVVIDQIKPGDDIRYWRDKHGIHHVPKRQVDELLVTAEQLRERG”, the protein production entry is given as “not failed”.

Regarding “MEGTVFTPCLEGMKHVKSDQGEMLTKPFLELCKTILPVIDKFGAAMTLVKSDIGGNITRLEKNYLSDPDKFKYLYTFVQVEIESKIAKGSSSCTNGLLWLTRAMDFLVELFRNLVAHQDWSMPQACADSYQKTLKKWHGWLASSTFSMALKLAPDRKKFMDVISGSGNIQADMERFCAEFGPFLHDNHKFLASVGMDDMKAS”, the protein production entry was “not failed”.

Regarding “MEHASKRDTMAPSGTIPGNGGVNAPSAARVDWVDYAKGICIVMVVMMHSVLGVELAAGETGFMHVAVAFAKPFRMPDFFLISGLFLSLVIDRDWRTYLDRKVVHFAYFYVVWVTIQFGFKAPAFAAETSWREVGLLYLESFIEPFGTLWFIYLLPVFFVVTKLTRRVPPLAIWLIAAALETARIATGWTAIDEFCARFVYFYSGYLFAPYVFALSDRARSHPGPALAALATWALINAGLVAYGASEWKVVSLVLGFAGACAIITMGTLLARAQWLNFFRFCGEHSIVIYLAFFLPMAATRTLLLRTGVIPDIGTVSLIVTIAGVLGSLAIWQAALRLGADFLFERPDAFWIAPKKAGVRLQAAE”, the protein production entry is “failed”.

The values above are taken from a protein production outcome set (Wang et al. 2014).
